System: T cells
Assay: T cell expansion with cytokines after TCR stimulation (cell surface staining)
Type: cell-based
Details: αCD3/αCD28 beads plus indicated cytokine
Procedure: Previously frozen T cells were thawed and contacted with αCD3/αCD28 dynal beads (cell to bead ratio of 1 to 3) in the presence of indicated cytokines at day 0. From day 3, twice more T cell growth media (RPMI1640, 10% FBS, 2 mM L-glutamin, 100 µM non-essential amino acids, 1 mM sodium pyruvate, 10 mM Hepes, 55 µM β-mercaptoethanol, 10% FBS, and 100 U/ml of penicillin-streptomycin) was added to the plate with indicated cytokines (without cytokine, rhIL2 (50 IU/ml, Novartis), IL6 (10 ng/ml, R&D systems), IL7 (10 ng/ml, Peprotech), IL15 (10 ng/ml, Peprotech), and IL21 (10 ng/ml, Peprotech)) at day 3, 5, 6, 9, 12, 15, and 18.
Cells were harvested at indicated time points and then stained with live/dead dye (eFluro780, eBioscience), CD3 (BioLegend, clone#: OKT3), CD4 (BioLegend, clone#: OKT4), CD8 (BD Bioscience, clone#: RPA-T8), CD45RO (BioLegend, clone#: UCHL1), CCR7 (BioLegend, clone#: G043H7), CD27 (BD Horizon, clone#: L128), CD127 (BioLegend, clone#: A019D5), CD57 (BioLegend, clone#: HCD57), CD126 (BioLegend, clon#: UV4), and CD130 (R&D Systems, clone#: 28126) antibodies. The cells were acquired by FACS Fortessa and then FlowJo program was used for data analysis.

B1: IL7: cytokine present during activation of T cells with αCD3αCD28 beads (protein, UniProt P13232 26-177, looked up)
Interleukin-7: DCDIEGKDGKQYESVLMVSIDQLLDSMKEIGSNCLNNEFNFFKRHICDANKEGMFLFRAARKLRQFLKMNSTGDFDLHLLKVSEGTTILLNCTGQVKGRKPAALGEAQPTKSLEENKSLKEQKKLNDLCFLKRLLQEIKTCWNKILMGTKEH
B1 was tested, and the T cell expansion was “enhanced T cell expansion”.
